The record followed here is article PMC4075454.

Test [1] has as its target WDR5 (UniProt P61964). In words: biotin-peptide streptavidin pull-down, anti-GST blot. As to conditions: reference: unmodified H3 peptide; sites T11.
In test [2] the target is WDR5 (UniProt P61964). In words: peptide pull-down, silver stain, MALDI-TOF identification. As to conditions: reference: unmodified H3 peptide; sites T11.

As to “histone H3 (synthetic tail peptides) 1-21 (from UniProt P68431) H3T11P peptide”, the “binding against the reference” value in the test with WDR5 [1] and in the test with WDR5 [2] was “stronger” throughout.
